Assay results from the DeepSol protein solubility set.

Assay: soluble on expression in E. coli; label from the status in PepcDB or PDB records

Sequence	soluble on expression in E. coli
MNPTNYDPRIGQPAQSRPQVSLSMGRRIVQMPTGLPRSYQDESHNEPVGWDEPSGVGGSSGAGGQQSDKPTGLRHFSTKVCEKVKEKGLTNYNEVADELVADYFQNNLIKQIDVVKQEYDMKNIRRRVYDALNVLLAMNIITKSKKDIRWIGLPASASQEISRLEEEKSRREASISSKKQALEEMVLQIVSYKNLVERNRKNEHKNGRPENDTVLHLPFLIINTDKEANVECSVSSDKSEFLFSFDKKFEIHDDFEILKKLNLACSLETTNPTAEEVKTAKSFLPTLHQHYVDEIIANRKKVEAEKEEKRKQQQLIADQMSMNLSQAQYVEPTSSLAQMSYSSRFNRQLQEHLINDGSEDRSAAAGIMERDYDMDKNVNQGSASRGPMYNTYSPQKIRAQVNTPLQVPPVTKRYYVQKTQGPMKHDMTPVVRTVNRPYSTVPPDRRLSTGATSVNSGPVKYYVPQGHQPMHQPVGQRYRVRPQQPQMSHMGQPHQVQQRVVYPAGSISGHQLQPGQRIVTQRIVAPGGPHPPGTIVRKVIRKIVVNNPKQSPAQQVIQKKMMEQDMCTFERKTEQPMTSAQAAALIQHPQPEEYDYFQ	not soluble
MGSDKIHHHHHHMRALATWQDKCIDSQLLVASLVGLFKQRDLDCDKLLRGTGIFITDIRKPDHLISPKQLARLLDNALAQWPNGDLSFLLGQLWFPSQSGVLTSGMFCARDVKELIYFWHKYHWLTQPWLQTWRWQGEHEWHFLLSLDLGMHRHKQFFIELSLSSFMACFKQLLGQAWRGSICFPYPAPDNLAHYYKYFGMDLRFDAPLCRISMAKNLLRQPSLFANQSLLYSQPENVDTHCAEDAQLPSASQSCIHGEAASPALDIQPLQLPLRPQLNMAKAARQALFAQEFRLGLAAGIRLKLMRRTLSLPEMAQILEISPATLKRRLGEMGLNYGQLADESRLIRALYFLAEPEQDAHSIASSLSFSDASNFRRSFKRWTGQLPGYFRYWLA	not soluble
MGSDKIHHHHHHMKRTVTVKLQPSKAQEETLKELAIISSKAWNKVNYLRRQEFFEGKPVDFLKTEKIVYEEFKSEIGSATVQQICRKNADAWRSFFSLIRSKRNGELPKWFKPKPPEYVKEGGLIILRNDQYKIEGNKLILKGLGKFKRLEVQFKGRIHLKGKQGKLEITYDPIKRKWYAHISYTVKEKLYGGEWVEVPRQPLGNLSAGIDLGVNNLMAVYVENGESFLVNGRPLKSIDFYWRERIADYQSKLNKSGAKKSRKLSRMHEKAKLQAKHYINTAVRQTVERLYHLGVSRIVVGYPKGISRNSNRGKKQNYLLSHVWRFNYVIKRLREVAEEYGIQVLIVDEAFTSKLCPVCGKPHKGQGLFEDYLSVPRRGLPLMPTWLELSTF	not soluble
MSGIFSVYVGNAPFQTTEEELGNFFSSIGQINNVRIVCDRETGRPRGFAFIEFAEEGSAQRAVEQMNGAEFNGRPLRVNLANK	soluble
MSLQFVSKARKGLVPQRCHRFQSCAYRSNQWRYRGRCDSIQFAVDKRVFIAGFGLYGSSCGSAEYSAKIEMKRQGVVLGQNLSKYFSDGSSNTFPVWFEYPVQIEPDTFYTASVILDGNELSYFGQEGMTEVQCGKVTVQFQCSSDSTNGTGVQGGQIPELIFYAEGHHHHHH	not soluble
MGSDKIHHHHHHMKITIYSKDLYTYGAMLVGGILKETHKHNIKLIKDIKNKKLFLKSDIVILSLYSTLNIIDPVIKDTVDYLKSKNIKIYVAGPVSAYPEIILNELNVDGVILGEGELTTPEIINGSKDGLAYFENGEMIVNKPKSKPDLDFSKIYVPKDIAAQNVRGANVYIETHRGCLGHCTFCQVPEFFGRDIRSKPIELIIEEVNELKKNGVNRIAISGGTGSLYNFKNTVNKNKFIEMIESVSNIIGRQNLSVPDMRVDYVDEEVLNAIKNYSIGWVFYGIESGSDKLLNSMKKGTNSKKNLKAIELAKDCGVKVAGSFIVGHPKEKEVDFLMTKDFIVDAELDDVFVSAAEPIPKTELCTEVLNTKMDENPTFISHNGPYRRYGLKENEARAYDLMLHSEMWKSTPRVITTNLSKVYLDEAKMQGSDIRKATELIFKYRDFLI	not soluble
MAEQSDEAVKYYTLEEIQKHNHSKSTWLILHHKVYDLTKFLEEHPGGEEVLREQAGGDATENFEDVGHSTDAREMSKTFIIGELHPDDRPKLNKPPEP	soluble
MVMETESKFHVLAVDDSLFDRKMIERLLQKSSCQVTTVDSGSKALEFLGLRVDDNDPNALSTSPQIHQEVEINLIITDYCMPGMTGYDLLKKVKESAAFRSIPVVIMSSENVPARISRCLEEGAEEFFLKPVKLADLTKLKPHMMKTKLKKESEKPVAIEEIVVSKPEIEEEEEESSVIEILPLHQEIESEQLEPMLSSNKRKAMEEVVSTDRSRPKYNDITTSV	not soluble
YTIYKEPLSLAPFEKIPSPLRRGLGKVAEVFPDGMRGKSLLQRGSMTMEERYYGNARSFNFDQMKRVIPWAKKEWDHREVTAPIYAQSEHMDPVARMQHLDLFTWMRGDILVKADKINMAHSLELRVPFLDKEVFEVAETIPYDLKIANGTTKYALRKAMEQIVPPHVLHRKKLGFPVPMRHWLAGDELFGWAQDTINESMTDQYFDKAAVLAMLNEHKNGVSDHSRRLWTVLAFMIWHGIFVEHRIDPGIEKRDYPVYL	not soluble
MIHQFHSEQQFRSLGMCVVSTFGSGRACTFIGALYAIHQLNNGVEPNIFEIMKTIKQQRPGAIESFPQYSGVYAIVLDYISRKRGGKSDPVNKYINRFLADLTEILPACSTLPVMNPSTELH	not soluble
GSGYREVEYWDQRYQGAADSAPYDWFGDFSSFRALLEPELRPEDRILVLGCGNSALSYELFLGGFPNVTSVDYSSVVVAAMQACYAHVPQLRWETMDVRKLDFPSASFDVVLEKGTLDALLAGERDPWTVSSEGVHTVDQVLSEVSRVLVPGGRFISMTSAAPHFRTRHYAQAYYGWSLRHATYGSGFHFHLYLMHKGGKLSVAQLALGAQILSP	soluble
MEEIWLSCHALVFHTTPTQRLCVGWGELAVGRFVKMAAAPAPEMTPRLDVSKNATDPDSLTDHGFQYSRHRPVITDHKRFDRLVGFSIKQSNVELAAEAIKQAATVWCLTEKKSDKRDEDSVKFLATYLYKESLYWGKIDPRRALQRATAESWLGSQSFAPTSARTYKAVLHTAGRVLYPAEFPPANRYSNPRAKPVDPASVELIDELYGVAATLPAVHRLRLQLILDLTTQSGLRSAEVLDLRGSDVTARILDTGERIALVRVHR	not soluble
MPTTPRSQPGTVGKDMAGALAGRHNDMPPISSNYQGRPGNANPNYRYQPSADNARNVADWTKSHMKTARENAAAKR	not soluble
ASLSPQPDVSGELNTEALTCIVERLESEIIDGSWIHISYEETDLEMMPFLVAQANKKYPELNLKFVMSVHELVSSIKETRMEGVESARFLVNMGSSGIHISVVDFRVMDGKTSVILFEPAACSAFGPALLALRTKAALEREQLPDCYFAMVELDIQRSSSECGIFSLALAKKLQLEFMNLVKIHEDNICERLCGEEPFLPSDKADRYLPVSFYKHTQGAQRLNEYVE	not soluble
MGSDKIHHHHHHMSSGLYLYGIFPDPIPETVTLQGLDSQLVYSQIIDGFTFLYSEAKQEKYLASRRNLISHEKVLEQAMHAGFRTLLPLRFGLVVKNWETVVTQLLQPYKAQLRELFQKLAGRREVSVKIFWDSKAELQAMMDSHQDLKQKRDQMEGKALSMEEVIHIGQLIESNLLSRKESIIQVFFDELKPLADEVIESDPMTEDMIYNAAFLIPWENESIFSQQVESIDHKFDERLRIRYNNFTAPYTFAQIS	not soluble
MGSDKIHHHHHHMSEVSKWPAINPFHWGYNGTVSHIVGENGSIKLHLKDNKEQVDFDEFANKYVPTLKNGAQFKLSPYLFTGILQTLYLGAADFSKKFPVFYGREIVKFSDGGVCTADWLIDSWKKDYEFDQSTTSFDKKKFDKDEKATHPEGWPRLQPRTRYLKDNELEELREVDLPLVVILHGLAGGSHEPIIRSLAENLSRSGRFQVVVLNTRGCARSKITTRNLFTAYHTMDIREFLQREKQRHPDRKLYAVGCSFGATMLANYLGEEGDKSPLSAAATLCNPWDLLLSAIRMSQDWWSRTLFSKNIAQFLTRTVQVNMGELGVPNGSLPDHPPTVKNPSFYMFTPENLIKAKSFKSTREFDEVYTAPALGFPNAMEYYKAASSINRVDTIRVPTLVINSRDDPVVGPDQPYSIVEKNPRILYCRTDLGGHLAYLDKDNNSWATKAIAEFFTKFDELVV	not soluble
MAHHHHHHMSSELVLAQESAWDKFGSKLKDMPFLNNFFENPILGKLFGETELAAALREMKMYDQNFKLSELMYLFEFVISKHIVESYLIGDEETLRVHCGQSAFNSLNASINERKKKKVYLDTNVLIYKNHELKGAQRMEESSPWFIFTFHTQQINCLKNANDEIIEGNIDDIREVVYTIALSKHPEPEREGLLYPYIVREFAIY	not soluble
MNKMLYGWLLAACCGLPPAFAGDSVDVLAQPALHGPQALRAVLQDVARADARLVAVGERGVVLLSDDNGATWRQATAVPVGVSLTAVQFIDARNGWAVGHAGVVLHSQDGGEHWSVQLDGKRAAALEVQAAEAAADERRLAAAQRLLADGADKPLLALNFTDARNGLVVGAYGVAMRTDDGGRSWQSEIGRLPNGRGLHLYALARQGNQVYIAGEQGLLLRSRDGGEHYEALHGPYDGSYFAATVLPDGRLLLGGLRGSLFASDDGGDSFQALANPTPASINGLRVAGGQLLLANQAGMLLRSGLGAFAAQPVAVSDGLPLTAATTAADGSIVAVGMAGARRLEPSSLEHHHHHH	not soluble
MSNQYINEPITTGKVTLETTAGDIEIELWTKEAPLACRNFIQLCMENYYKGTVFHRLVKNFILQGGDPTATGTGGESIYGKPFKDEIHQRLKFNRRGIVGMANAGRDDNGSQFFFTIGDRGAPELDKKHTIFGKVTGPTLFNMLKITEVETEGDRPVTFYKITGARIDNNPFDDLKPREKRKKEKSERRKEPKVVETKKTNLLSFGDEVEEDEQELAVFNKV	not soluble
TKDFSWTTSLNLSHNKNKIVKLADLPEFIDGNYIRKEGCSYATIYLREYAGVDPNDGRPMYYDNKEDENGNRSRNIVYDPNDADRVELKDIYPKLTGGLMNTFNYKFIDLSFNLSFHLGGYSYDGAMYALQDDGYTAQYNKSTELRRRWKQPGDITDVPRYVYGQEYGGWWNSSRGVHSTDHLRLKSLIVGVSAPQSWLRTIGINSARIYFSGTNLLTWAAYDQYDPELNGIVSYFTPPLKTFAFGLELKF	not soluble
MDDRLYAPATERNRDAILAVLKDELRSPGTVLEIASGTGEHGAYFAPQLPDYFWQPSDPNEESRRSIAAWRSHVNAPNLGEAIAIDVTRSDWVESVPEFPQPVVAIAAINLIHISPWEATLGLFAGAKQLLSVDGLIYLYGAYKRGGQHTAPSNEAFDASLQARNPAWGARNLEDVTAVAEAEQFRLDRIVEMPSNNLSVCFRAIALEHHHHHH	soluble
MGSDKIHHHHHHSNKPEGVIGPFQLVIETKESYLPNDPLDVRVKVFNREKKKENLVLEDFVFSIKRENDTVYEFHFPQRVEKEMEAFESVLVFDLLREEELSNLPGGNYTITVSVKLNGQRVVISKVVSVIEKWQIEVEDLKDFYFPYENVHFFVYLENISSKSRKIRVESIGLIILKGNEAVFERDIPIEKDFVINPMMVEQIHEVSFSAPKESGDYIIKLKLKTESSLIEKSIPLFVTREYQKDLKGLSLVIEGKKFVASGERYDFSVKLLNEEKKRKYIVLKNIMIVLTHKEPVFSYAYSEEYRMTIEGYSSREIFKTTSYDIIKLEDPGTYKLIVVIESEEDRLMKEMEIVVSE	not soluble
